Source: patent publication US20180230469A1, “METHOD OF TREATING PAIN WITH AN ANTIBODY AGAINST NETRIN-4, UNC5B OR NEOGENIN” (OSAKA UNIVERSITY, priority 2013, published 2018)
Entries after “also recorded” stand apart in the source; their conditions may differ.

Assays:
SHP2 = biological target: T1, SHP2 (Rattus norvegicus, UniProt P41499); assay: von Frey filament test after intrathecal netrin-4 mixed with SHP inhibitor; type: in vivo; details: inhibitor 1 mM mixed with netrin-4 40 ng/μL, 10 μL intrathecal; for change in withdrawal threshold after administration of mixture with netrin-4: 12, 24 and 48 hours; for degree of reduction in withdrawal threshold at 24 hours after administration: vs netrin-4 alone
T1 construct: SHP2 is expressed in the neurons of the dorsal horn of the spinal cord; from tissue; host or cells: spinal cord of living rats (in vivo, intrathecal administration)
T1 sequence (P41499 1-593): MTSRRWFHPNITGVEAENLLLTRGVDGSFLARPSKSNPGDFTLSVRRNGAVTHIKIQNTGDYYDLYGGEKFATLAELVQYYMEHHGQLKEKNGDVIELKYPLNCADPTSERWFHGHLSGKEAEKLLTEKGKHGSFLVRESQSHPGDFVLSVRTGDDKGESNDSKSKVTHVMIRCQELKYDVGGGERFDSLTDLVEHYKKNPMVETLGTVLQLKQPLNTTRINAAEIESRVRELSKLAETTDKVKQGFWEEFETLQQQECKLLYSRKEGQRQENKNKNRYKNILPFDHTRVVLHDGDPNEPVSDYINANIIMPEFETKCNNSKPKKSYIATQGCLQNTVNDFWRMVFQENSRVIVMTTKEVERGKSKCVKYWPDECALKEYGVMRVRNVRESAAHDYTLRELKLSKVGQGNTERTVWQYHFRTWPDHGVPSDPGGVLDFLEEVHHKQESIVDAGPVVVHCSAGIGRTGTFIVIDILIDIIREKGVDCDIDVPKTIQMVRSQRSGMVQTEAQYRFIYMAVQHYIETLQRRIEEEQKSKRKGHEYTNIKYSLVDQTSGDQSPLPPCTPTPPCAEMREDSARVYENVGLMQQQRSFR
Experimental: (§1) The von Frey filament test was used to measure the response to mechanical stimuli. Before the test, a plastic case was set onto a metallic mesh, and the pain model rat was put into the plastic case and acclimated to the environment for 5 to 10 minutes until settled. A filament (Semmes-Weinstein Von Frey Anesthesiometer, Muromachi Kikai Co., Ltd.) was applied to the center of the plantar surface of the hindpaw for 3 to 5 seconds, and the threshold for hindpaw withdrawal (g) was measured. After the measurement of the withdrawal thresholds of both the paws was completed, the animal used was identified from the ear tag and then returned to a breeding cage.
(§2) A purified netrin-4 protein (R&D) was dissolved in physiological saline to give a 40 ng/μL netrin-4 solution. […] (Calbiochem), an inhibitor of SHPs, was dissolved at a concentration of 50 mM in sterilized water and kept refrigerated until use. The solution was diluted 50-fold with physiological saline before use. PTPi4 (bis(4-trifluoromethylsulfonamidophenyl)-1,4-diisopropylben zene, Protein Tyrosine Phosphatase Inhibitor IV, Calbiochem), an inhibitor of SHP2, was dissolved at a concentration of 16.4 mM in DMSO (dimethyl sulfoxide, Sigma-Aldrich) and kept refrigerated until use. The solution was diluted to a final concentration of 1 mM with physiological saline before use.
In order to clarify whether the activation of SHP2 is required for the action of netrin-4 on the potentiation of nociceptive response, it was examined whether intrathecal administration of a SHPs inhibitor, NSC87877, or a SHP2 inhibitor, PTPi4 (bis(4-trifluoromethylsulfonamidophenyl)-1,4-diisopropylben zene, Protein Tyrosine Phosphatase Inhibitor IV), would cancel the effect of intrathecal administration of netrin-4. NSC87877 (final concentration: 1 mM) or PTPi4 (final concentration: 1 mM) was mixed with netrin-4 (final concentration: 40 ng/μL , and 10 uL of the mixture was infused from the rear end of the polyethylene tube retained in the medullary cavity. The von Frey filament test was conducted at 12, 24 and 48 hours after the administration to examine the change in withdrawal threshold.

[1] = test system: neurons in the dorsal horn of the spinal cord (c-fos); assay: Immunostaining of c-fos in lumbar cord tissue after intrathecal netrin-4; type: in vivo, rat; details: lumbar cord tissue 48 hours after intrathecal administration, vs physiological saline
Experimental: (§3) Rat tissue fixation was performed by perfusion under deep anesthesia with intraperitoneal pentobarbital. For the fixation, 0.1 M phosphate buffer was perfused, followed by a 4% PFA solution (a solution of 4% paraformaldehyde (Nacalai Tesque) in 0.1 M phosphate buffer). After the perfusion-fixation, the lumbar enlargement of the spinal cord was dissected, immersed in a 4% PFA solution and further fixed for 6 hours. The 4% PFA solution was replaced with a solution of 30% sucrose (Nacalai Tesque) in 0.1 M phosphate buffer before incubation with agitation at 4° C. for two consecutive days. The lumbar cord tissue was embedded in OCT compound (Sakura Finetek Japan Co., Ltd.), frozen and sliced to a thickness of 20 μm with a cryostat, and the resulting section was mounted onto a slide glass (Matsunsmi Glass Ind., Ltd.). The specimen was immersed in a 5% BSA solution (a solution of 5% BSA (bovine serum albumin, Sigma-Aldrich) in 0.1 M phosphate buffer) at room temperature for 2 hours. The 5% BSA solution was replaced with a 5% BSA solution containing a primary antibody, and the reaction was allowed to proceed at 4° C. for two consecutive days. […] After washing with 0.1 M phosphate buffer 3 times, the specimen was coverslipped with a mounting medium and then observed under a fluorescence microscope. […]

[2] = test system: glial cells or immune cells in the spinal cord; assay: Immunostaining of Iba1, GFAP, CD3ε and CD45R in lumbar cord tissue after intrathecal netrin-4; type: in vivo, rat; details: lumbar cord tissue 48 hours after intrathecal administration, vs physiological saline
Experimental: as §3

male Wistar rat = assay: von Frey filament test after intrathecal administration of netrin-4 to rats; type: in vivo
Experimental: as §1, §2
In order to clarify the function of netrin-4 in the spinal cord in an in vivo setting, the change in nociceptive response after intrathecal administration of netrin-4 was examined. First, a polyethylene tube was inserted into the medullary cavity of an 8-week-old male Wistar rat. One week after the intubation, the von Frey filament test was conducted to confirm, the absence of intubation-caused motor dysfunction. Ten microliters of a netrin-4 solution (40 ng/μL) was infused from the rear end of the tube retained in the medullary cavity. Meanwhile, the same volume of physiological saline was administered to each animal of the control group. The von Frey filament test was conducted at 12, 24 and 48 hours after the administration to examine the change in withdrawal threshold.
Ten microliters of a netrin-4 solution (40 ng/μL), a 10% netrin-4 solution (4 ng/μL) , a 1% netrin-4 solution (0.4 ng/μL) or a thermally denatured netrin-4 solution (prepared by heat treatment of a netrin-4 solution (40 ng/μL) at 100° C. for 10 minutes) was administered in the same manner as in Experiment 1, and the degree of the change in withdrawal threshold from before to 24 hours after the administration was calculated.

O=S(=O)(O)c1ccc2cc(N=Nc3cc(S(=O)(=O)O)c4cccnc4c3O)ccc2c1 [NSC87877]
change in withdrawal threshold after administration of mixture with netrin-4 (SHP2): reduction in withdrawal threshold was observed in the group of administration of netrin-4 alone, but not | degree of reduction in withdrawal threshold at 24 hours after administration (SHP2): significantly curbed

CC(C)(c1ccc(NS(=O)(=O)C(F)(F)F)cc1)c1ccc(C(C)(C)c2ccc(NS(=O)(=O)C(F)(F)F)cc2)cc1 [PTPi4, bis(4-trifluoromethylsulfonamidophenyl)-1,4-diisopropylben zene]
change in withdrawal threshold after administration of mixture with netrin-4 (SHP2): reduction in withdrawal threshold was observed in the group of administration of netrin-4 alone, but not | degree of reduction in withdrawal threshold at 24 hours after administration (SHP2): significantly curbed

B1: netrin-4: purified netrin-4 protein (R&D) dissolved in physiological saline (protein, UniProt Q9HB63 19-628, looked up)
Netrin-4: GLSGVAGVSSRCEKACNPRMGNLALGRKLWADTTCGQNATELYCFYSENTDLTCRQPKCDKCNAAYPHLAHLPSAMADSSFRFPRTWWQSAEDVHREKIQLDLEAEFYFTHLIVMFKSPRPAAMVLDRSQDFGKTWKPYKYFATNCSATFGLEDDVVKKGAICTSKYSSPFPCTGGEVIFKALSPPYDTENPYSAKVQEQLKITNLRVQLLKRQSCPCQRNDLNEEPQHFTHYAIYDFIVKGSCFCNGHADQCIPVHGFRPVKAPGTFHMVHGKCMCKHNTAGSHCQHCAPLYNDRPWEAADGKTGAPNECRTCKCNGHADTCHFDVNVWEASGNRSGGVCDDCQHNTEGQYCQRCKPGFYRDLRRPFSAPDACKPCSCHPVGSAVLPANSVTFCDPSNGDCPCKPGVAGRRCDRCMVGYWGFGDYGCRPCDCAGSCDPITGDCISSHTDIDWYHEVPDFRPVHNKSEPAWEWEDAQGFSALLHSGKCECKEQTLGNAKAFCGMKYSYVLKIKILSAHDKGTHVEVNVKIKKVLKSTKLKIFRGKRTLYPESWTDRGCTCPILNPGLEYLVAGHEDIRTGKLIVNMKSFVQHWKPSLGRKVMDILKRECK
number of c-fos-positive cells in the dorsal horn of the spinal cord [1]: increased as compared with that in the control group | cell morphology and spinal distribution of Iba1, GFAP, CD3ε and CD45R positive cells [2]: No remarkable difference | change in withdrawal threshold (von Frey filament test) (male Wistar rat; intrathecal 10 μL of 40 ng/μL, 12, 24 and 48 hours after administration): significant reduction in the netrin-4-administered rats versus the control group at 12, 24 and 48 hours after the administration; also recorded: reduction in withdrawal threshold was observed | degree of change in withdrawal threshold from before to 24 hours after administration (male Wistar rat; intrathecal 10 μL of 1% netrin-4 solution (0.4 ng/μL)): no significant reduction was observed | degree of change in withdrawal threshold from before to 24 hours after administration (male Wistar rat; intrathecal 10 μL of 10% netrin-4 solution (4 ng/μL)): reduction in withdrawal threshold was observed

B2: thermally denatured netrin-4: netrin-4 solution (40 ng/μL) heat-treated at 100° C. for 10 minutes (protein, UniProt Q9HB63 19-628, looked up)
Netrin-4: GLSGVAGVSSRCEKACNPRMGNLALGRKLWADTTCGQNATELYCFYSENTDLTCRQPKCDKCNAAYPHLAHLPSAMADSSFRFPRTWWQSAEDVHREKIQLDLEAEFYFTHLIVMFKSPRPAAMVLDRSQDFGKTWKPYKYFATNCSATFGLEDDVVKKGAICTSKYSSPFPCTGGEVIFKALSPPYDTENPYSAKVQEQLKITNLRVQLLKRQSCPCQRNDLNEEPQHFTHYAIYDFIVKGSCFCNGHADQCIPVHGFRPVKAPGTFHMVHGKCMCKHNTAGSHCQHCAPLYNDRPWEAADGKTGAPNECRTCKCNGHADTCHFDVNVWEASGNRSGGVCDDCQHNTEGQYCQRCKPGFYRDLRRPFSAPDACKPCSCHPVGSAVLPANSVTFCDPSNGDCPCKPGVAGRRCDRCMVGYWGFGDYGCRPCDCAGSCDPITGDCISSHTDIDWYHEVPDFRPVHNKSEPAWEWEDAQGFSALLHSGKCECKEQTLGNAKAFCGMKYSYVLKIKILSAHDKGTHVEVNVKIKKVLKSTKLKIFRGKRTLYPESWTDRGCTCPILNPGLEYLVAGHEDIRTGKLIVNMKSFVQHWKPSLGRKVMDILKRECK
modifications: heat-denatured
notes: netrin-4 solution (40 ng/μL) heat-treated at 100° C. for 10 minutes
degree of change in withdrawal threshold from before to 24 hours after administration (male Wistar rat; intrathecal 10 μL of 40 ng/μL solution heat-treated at 100° C. for 10 minutes): did not reduce the withdrawal threshold
